Laboratory results as given in publication PMC8915372.

Target: HLA-A*03:01 (HLA class I molecule of HLA-A3+ NBS fibroblasts) (human | human (endogenous in NBS fibroblasts))
Experiment: affinity purification with mass spectrometry

- amount of peptide detected by PRM in the HLA class I eluate (fmol/million cells): 3.67
Binder: ATFYVRTTINK [A3-RPL28^74-84(p76S>F) 11-mer peptide]
